From the RNAGym collection of RNA variant scans (doi:10.7554/elife.80360) come the findings set out here.

B1: Twister Ribozyme (parent)
chain: AACACUGCCAAUGCCGGUCCCAAGCCCGGAUAAAAGUGGAGGGGGCGG

The variants in the data set derive from B1. Put plainly: self-cleavage, relative activity (ratio to wild type); higher = more cleavage; co-transcriptional.
In the case of U31C G44U, the self-cleavage amounted to 1.01.
Next, G7C C14U: 0.0373.
Next, C8G C14G: 0.0524; G13A U37C: 0.183; A22G G45A: 0.277.
Next, U6A A11U: 1.03; G39C G44U: 0.169.
On to A2U C14G, for which the self-cleavage was 0.0946.
The value for G7C C27A was 0.0706.
Next, C14A G29U: 0.903.
Turning to A22U G28U, the self-cleavage stood at 0.736.
The value for A1G was 0.461.
Next, C26A G36A: 0.0875.
Next, C9A U18C: 0.0799; C19A C46G: 0.177; A11G U12A: 0.942.
G13U G28A: the self-cleavage amounted to 0.543.
The value for C25A U31C was 0.138.
As for C3G G16U, the self-cleavage was 0.608.
The value for A32G U37G was 0.716.
The value for G17A A34G was 0.211; that for G16A A30U was 1.04.
On to C3G C27U, for which the self-cleavage was found to be 0.327.
The value for C25A G38A was 0.0977.
With G42A G48U, the self-cleavage amounted to 0.397.
The value for U6A C46G was 0.988; that for C5U A11U was 0.564.
The value for C9A G45A was 0.41.
For the variant G16A A40G, the self-cleavage was 0.17.
The value for G16A A33C was 0.799.
The value for U31G G39A was 0.623; that for C20U G28U was 0.906.
The value for C26G U37G was 0.115; that for U6C A32G was 0.518.
Consider A2U G39A, for which the self-cleavage is 0.12.
With A2C C14G, the self-cleavage stood at 0.0512.
Next, G17U G39A: 0.119.
The value for G38U G45A was 0.827; that for C15U A33U was 1.01; that for C14U G28C was 1.01.
The value for C25G A34G was 0.124; that for C19A G43U was 0.732; that for G13U C15G was 0.108.
G17A G42A: the self-cleavage worked out at 0.107.
With C5U C26A, the self-cleavage is 0.148.
Next, G28C G38C: 0.531.
The value for U18C G36U was 0.0651.
Next, A35G A40U: 0.107; A34G G45C: 0.274; G7C G48C: 0.0656.
With A30C G45A, the self-cleavage stood at 0.733.
The value for C5G A30G was 0.608; that for C8U G13U was 0.103.
Next, U18G G42U: 0.0585; C8A A11U: 0.7; A1C A32C: 0.188.
The value for A1G C8G was 0.262; that for C5U G13C was 0.13.
For C21U C25A, the self-cleavage is 0.061.
The value for C15A G16U was 0.34; that for C46G G47A was 0.818.
C14A G39C: the self-cleavage is 0.154.
Next, C15G C21A: 0.077; A2U A32G: 0.605.
The value for C21A U37A was 0.105; that for G28U G44A was 0.718; that for C46U G47C was 1.6.
The value for G42U G47U was 0.296; that for A32U A34G was 0.869; that for C25U A40G was 0.121.
With G36C G44U, the self-cleavage was found to be 0.512.
As for G17A U31A, the self-cleavage stood at 0.715.
As to A10C C19G, the self-cleavage amounted to 0.309.
Consider C8A G13A, for which the self-cleavage was 0.359.
As for C26U G42C, the self-cleavage came out at 0.15.
With A23C G43A, the self-cleavage was determined as 0.117.
Next, C25U G43A: 0.151.
Take C8U G16A: the self-cleavage turned out to be 0.442.
The value for A32C G38A was 1.03.
The value for U12A G17A was 0.85.
The value for G13C A32C was 0.159; that for C8U G45U was 0.313.
Regarding C9U A32G, the self-cleavage is 0.729.
The value for A4G C27G was 0.0421; that for U31A A40C was 0.207.
The value for G24U A33U was 0.121; that for C5A G28U was 0.282; that for G13A C26U was 0.142.
Next, A1C C15U: 0.153.
Consider U31C U37C, for which the self-cleavage amounted to 0.587.
The value for G13A G39U was 0.171.
The value for A1C G29U was 0.215; that for C15A G45A was 0.478.
The value for C8A G24C was 0.31; that for A11C A22C was 0.929.
In the case of G17A G38U, the self-cleavage came out at 0.468.
Next, G29U G45U: 0.574.
In the case of G7A A23C, the self-cleavage is 0.0662.
Next, C21U A23C: 0.0826; G24C G29C: 0.104; G13A G38U: 0.463.
The value for C5G A33C was 0.565; that for C19G A35C was 0.393; that for A33G A35U was 0.789.
Take A4C G42A: the self-cleavage came out at 0.0686.
The value for A22U G41C was 0.142; that for A22U G41A was 0.102.
The value for C5A C26U was 0.0777; that for C3U G48U was 0.562.
The value for C5A U37G was 0.671.
For the variant C5U C46U, the self-cleavage worked out at 0.825.
Take A33U G36U: the self-cleavage was found to be 0.132.
The value for A2G A32U was 0.401; that for A2G A32C was 0.414.
Next, C8U A32G: 0.385.
The value for G41A was 0.665.
U18A A22C: the self-cleavage was 0.485.
The value for A40U G45U was 0.177; that for C3G A32G was 0.434; that for U6G G45U was 0.129.
Next, G29A A32G: 0.84; A30G G38U: 0.771; A1G A35U: 0.447.
Take G17U C26G: the self-cleavage is 0.637.
As to G42A G43C, the self-cleavage came to 0.113.
The value for A23C G41C was 0.112; that for U37C G39A was 0.219; that for G16U G41A was 0.278.
The value for G29A G38A was 0.772; that for A2C G29U was 0.0781; that for A1U C5A was 0.0587.
Next, A4U A33C: 0.0899; A34G G42A: 0.133.
For the variant G43C C46A, the self-cleavage worked out at 0.111.
Next, G36U G41U: 0.0887; U12C C15A: 0.739.
On to C3A G24A, for which the self-cleavage came to 0.0635.
Next, A22U G36U: 0.074; C8G C26U: 0.0555; C5G U6G: 0.232.
The value for U12C C27G was 0.0656; that for G29C G41A was 0.108.
Next, A11C C14U: 0.909.
On to A23U C27G, for which the self-cleavage came out at 0.0875.
Next, A22G A32U: 0.278; A22G A32C: 0.35; G16C C26A: 0.35.
The value for U6G A10U was 0.204; that for G41C G45U was 0.429.
Next, U18G A30G: 0.0594; C19A C26G: 0.0718; G28U A40C: 0.136.
A33C G42A: the self-cleavage stood at 0.177.
With A11G C19G, the self-cleavage was 0.538.
A32C G41C: the self-cleavage stood at 0.326.
The value for C25A A40C was 0.114; that for A23U A34G was 0.0731; that for C15U U31G was 0.782.
The value for C8G C19A was 0.0465; that for C21U A40C was 0.109.
As to C21U A40U, the self-cleavage came to 0.0831.
Next, C21U A40G: 0.0774; G41A C46A: 0.356; A23U G36C: 0.12.
Next, C14U A22G: 0.319.
Next, A30U G41A: 0.621; C15A G28A: 0.865.
